Experimental data taken from the supplement of paper PMC11865577.

How the values were obtained:
Assay in all cases: pull-down binding Z-score (relative to library population); higher = stronger binding
Conditions in all cases: RNA library: Library-2
[1] = tested on: TO-3-N3 (biotin conjugate)
Method in brief: (§1)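 A heat-folded, dye-end-labelled (Cy5 or Cy3) RNA library (1 μg, phosphate/NaCl/KCl buffer) was exposed for 60 min at 25 °C to streptavidin beads holding 100 pmol of biotin-conjugated small molecule. RNA retained on the beads was eluted in hot SDS and hybridised to a DNA barcode microarray for 20 h at 55.5 °C. Binding scores were Z-scores against the library mean and standard deviation, calculated after subtracting beads alone and taking trimmed means of replicate probes.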

[2] = tested on: TO-3-N3-2 (biotin conjugate)
Method in brief: as §1

TO-N3 (biotin conjugate) = tested on: TO-N3 (biotin conjugate)
Method in brief: as §1

[3] = tested on: TO-N3-2 (biotin conjugate)
Method in brief: as §1

| Sequence | pull-down binding Z-score [1] | pull-down binding Z-score [2] | pull-down binding Z-score (TO-N3 (biotin conjugate)) | pull-down binding Z-score [3] |
| --- | --- | --- | --- | --- |
| CGUUCGGAUGCUCGAACUGCACCUCAUGGUCAUGUUAUGGUUGAGCUGGUAGCAGAACUCGAAGGCAUUCAGUACG [SHAPE_invitro_SARS-CoV-2_Motif_11] | -0.289 | -0.454 | 0.0804 | 1.57 |
| UGUGACCUUCAAAAUUAUGGUGAUAGUGCAACAUUACCUAAAGGCAUAAUGAUGAAUGUCGCA | -0.431 | -0.486 | -0.621 | -1.05 |
| GCUGGUCUGACUCACAUGAUGAUCUGGC [IAV_invivo_NP_5_Motif_8+IAV_invivo_NP_5_Motif_8] | -0.624 | -0.265 | -0.454 | 0.653 |
| UGCUCAAGAAGCUUAUGAGCA [SHAPE_invivo_SARS-CoV-2_Motif_229] | -0.554 | 0.0729 | -0.253 | 0.0417 |
| AUGCAUUCUGCAU [SHAPE_invivo_SARS-CoV-2_Motif_273] | -0.0791 | -0.638 | -0.142 | -1.32 |
| CUCUGGAACACUUUUACAAGACUUCAGAG [SHAPE_invivo_SARS-CoV-2_Motif_367] | -0.0115 | -0.651 | -0.338 | -0.513 |
| UGCAAGAGAUGGUUGUGUUCCCUUGAACAUAAUACCUCUUACA [DMSMaPseq_invitro_SARS-CoV-2_Motif_219] | -0.678 | -0.0456 | -1.01 | -1.18 |
| AGUUGCUUACUCUAAUAACU [DMSMaPseq_invitro_SARS-CoV-2_Motif_421] | -0.129 | -0.314 | -0.387 | -0.822 |
| AAUCAUACAUCACCAGAUGUUGAUU [SHAPE_invitro_SARS-CoV-2_Motif_454] | -0.503 | -0.477 | -0.814 | -0.903 |
| GCAAAUUGCACAAUUUGC | 0.165 | 0.661 | 0.0548 | -0.158 |
| AGGUUGGUAUGCAAAAGUAUUCUACACUCCAGGGACCACCUGGUACUGGUAAGAGUCAUUUUGCUAUUGGCCU | -0.654 | -0.203 | -0.418 | 0.696 |
| AACACCAGUUUACUCAUUCUUACCUGGUGUU | -0.56 | -0.421 | -0.829 | -1.46 |
| GCAUUGAUUUAGAUGAGUGGAGUAUGGCUACAUACUACUUAUUUGAUGAGUCUGGUGAGUUUAAAUUGGCUUCACAUAUGU | -0.215 | -0.04 | 0.0261 | 0.256 |
| UAGUAGCUGGUGGUAUUGUAGCUAUCGUAGUAACAUGCCUUGCCUACUA [DMSMaPseq_invitro_SARS-CoV-2_Motif_172] | -0.611 | -0.39 | -0.871 | -1.01 |
| UGAGUGUGACAUACCCAUUGGUGCAGGUAUAUGCGCUAGUUAUCAGACUCA | 0.734 | 0.422 | 0.865 | 0.541 |
| CGGCAUCAUAUGGGUUGCAACUGAGGGAGCCUUGAAUACACCAAAAGAUCACAUUGGCACCCGCAAUCCUGCUAACAAUGCUG [SHAPE_invitro_SARS-CoV-2_Motif_522] | -0.511 | 0.0568 | -0.253 | 0.334 |
| AUGCUGACGAUGGUCAUUUUGUCAGCAU [IAV_invivo_M1_M2_7_Motif_18+IAV_invivo_M1_M2_7_Motif_18] | 0.0275 | 0.337 | -0.322 | -0.84 |
| CCCAUCCGUGGGUGGG [IAV_invivo_NA_6_Motif_4+IAV_invivo_NA_6_Motif_4] | -0.525 | -0.239 | -0.897 | -0.95 |
| AUGUCAUAUUGGAGUUGGACUGCAGGGCUUCCUUUACACAAUAAAUAUUGUAUGAAGUGCUGAUGUAACCUUUACUGCAGCAUGACAU [hsa-mir-3976] | 0.131 | -0.081 | 0.227 | 0.0127 |
| AACCAUACAGGUGUUGUUGGAGAAGGUU [DMSMaPseq_invitro_SARS-CoV-2_Motif_31] | 0.0755 | 0.125 | -0.0691 | -0.444 |
| GAAGUCACACCUUC [SHAPE_invitro_SARS-CoV-2_Motif_534] | 0.0219 | -0.725 | -0.137 | -0.517 |
| CAGUUGAAACAUCAAAUUCGUUUGAUGUACUG | -0.685 | -0.516 | -1.04 | -1.22 |
| UCCAUUUUUGGGUGUUUAUUACCACAAAAACAACAAAAGUUGGA [SHAPE_invitro_SARS-CoV-2_Motif_398] | -1.12 | 0.136 | -1.29 | -0.616 |
| ACAACCCUUAAGGGUGU [SHAPE_invivo_SARS-CoV-2_Motif_115] | -0.802 | -0.665 | -1.19 | -1.1 |
| GGUCUAUAUGCC [SHAPE_invivo_SARS-CoV-2_Motif_218] | 0.153 | -0.349 | 0.0896 | -0.475 |

| Sequence | pull-down binding Z-score [1] | pull-down binding Z-score [2] | pull-down binding Z-score (TO-N3 (biotin conjugate)) | pull-down binding Z-score [3] |
| --- | --- | --- | --- | --- |
| GCGCCGCCAGAAACUGGCCGCGC [mismatch-CC] | -0.796 | -0.533 | -1.08 | -0.608 |
| UGUCAUUACUUCAGGUGAUGGCA | 0.0463 | -0.0892 | -0.14 | -1.31 |
| UGUAUGAAAAUGCCUUUUUACCUUUUGCUAUGGGUAUUAUUGCUAUGUCUGCUUUUGCAAUGAUGUUUGUCAAACAUAAGCAUGCA | -0.713 | 0.0997 | -0.547 | -0.447 |
| CCAUGGGACAGGAACAGGAUACACCAUGG [IAV_invivo_PB1_2_Motif_4+IAV_invivo_PB1_2_Motif_4] | -0.411 | 0.154 | -0.056 | 0.927 |
| AUGAUGUUUCUUUUUUAGCACAU | -0.696 | -0.427 | -1.09 | -1.28 |
| UGUUGUAACAACA | -0.671 | -0.596 | -0.992 | -1.35 |
| CACGUCCAACUCAGUUUGCCUGUUUUACAGGUUCGCGACGUG | 0.0988 | -0.0582 | 0.0672 | 0.192 |
| UUACAGAAGAGGUUGGCCACACAGAUCUAAUGGCUGCUUAUGUAG | -0.523 | -0.244 | -0.376 | -0.138 |
| AAACCCGGUAAUUUUAACAAAGACUUCUAUGACUUUGCUGUGUCUAAGGGUUU [SHAPE_invivo_SARS-CoV-2_Motif_278] | -0.52 | -0.338 | -0.677 | -0.917 |
| UCCAAACGCAAGCUUCGAUAAUUUUAAGUUUGUAUGUGA [SHAPE_invivo_SARS-CoV-2_Motif_125] | -0.388 | -0.0327 | -0.589 | -0.684 |
| UGCAGAUUUGGAUGAUUUCUCCAAACAAUUGCA | 0.0526 | -0.117 | -0.0544 | -0.51 |
| UACCAGCUGUACUCAACUCAAUUGAGUACAGACACUGGUG [DMSMaPseq_invitro_SARS-CoV-2_Motif_468] | -0.751 | -0.473 | -1.16 | -1.06 |
| GCGCUGCCAGAAACUGGCAGCGC [full-UA] | -0.337 | -0.274 | -0.599 | -0.943 |
| CCACGCUCGUUCCGACACCGGAACGGCACUCGACACCGAGUGCAGCGUGG [3-way model-3_NoName] | 1.17 | 1.41 | 1.51 | 1.93 |
| UCCACACGCAAGUUGUGGA | -0.719 | -0.579 | -1.18 | -1.4 |
| GUGAUGAACUGAAGAUUAAUGCGGCUUGUAGAAAGGUUCAACACAUGGUUGUUAAAGCUGCAUUAUUAGCAGACAAAUUCCCAGUUCUUCAC | -0.0396 | 0.69 | 0.101 | 0.059 |
| UUAAUGGAGUCACAUUAA [DMSMaPseq_invitro_SARS-CoV-2_Motif_357] | 0.485 | -0.347 | 0.273 | -1 |
| AGUGUAAAAGUGCCUUUUACAUU [DMSMaPseq_invitro_SARS-CoV-2_Motif_79] | -0.69 | -0.399 | -0.863 | -1.12 |
| GUAUCUGAAUUAC | 0.0447 | -0.196 | -0.136 | -0.281 |
| ACAAGAGGGUGUGGUUGAUUAUGGUGCUAGAUUUUACUUUUACACCAGUAAAACAACUGUAGCGUCACUUAUCAACACACUUAACGAUCUAAAUGAAACUCUUGU | 0.233 | 0.984 | 0.447 | 0.277 |
| AUGAGAAGUGCUCUGCCUAUACAGUUGAACUCGGUACAGAAGUAAAUGAGUUCGCCUGUGUUGUGGCAGAUGCUGUCAU [SHAPE_invitro_SARS-CoV-2_Motif_53] | -0.626 | -0.278 | 0.461 | 2.07 |
| GGUUGGGAGAAGAGCAACAGCC [IAV_invivo_PB2_1_Motif_16+IAV_invivo_PB2_1_Motif_16] | 0.351 | 0.479 | 0.776 | 1.09 |
| GUUAGUACAACUACUAAC [SHAPE_invivo_SARS-CoV-2_Motif_138] | -0.759 | -0.398 | -1.06 | -0.963 |
| CCUUCACUGUAGAAAAAGG [SHAPE_invivo_SARS-CoV-2_Motif_423] | -0.468 | -0.29 | -0.772 | -0.52 |
| GGGCAAGCUGUCUCAAAUGUCC [IAV_invivo_PA_3_Motif_10+IAV_invivo_PA_3_Motif_10] | -0.508 | -0.226 | -0.543 | 0.0264 |
